Test [1] concerns 3×MBT domain of L3MBTL1. Description: Triple SILAC pull-down, 3xMBT/3xMBTD355N ratio (cytoplasmic, nuclear and chromatin fractions of 293T cells).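 For all read-outs here: proteins quantified with MaxQuant, requiring at least two unique peptides and quantification in both label directions, normalized to the mean of proteins from a digested loading control.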 In kind it is binding, human. To be noted: for 3xMBT/D355N UNC Heavy: experiment with UNC0638 in heavy SILAC media; for 3xMBT/D355N UNC Light: experiment with UNC0638 in light SILAC media.
In test [2] the target is T1, G9a and GLP (Homo sapiens, UniProt Q96KQ7+Q9H9B1).
T1 sequence (Q96KQ7 2-1210 limits assumed): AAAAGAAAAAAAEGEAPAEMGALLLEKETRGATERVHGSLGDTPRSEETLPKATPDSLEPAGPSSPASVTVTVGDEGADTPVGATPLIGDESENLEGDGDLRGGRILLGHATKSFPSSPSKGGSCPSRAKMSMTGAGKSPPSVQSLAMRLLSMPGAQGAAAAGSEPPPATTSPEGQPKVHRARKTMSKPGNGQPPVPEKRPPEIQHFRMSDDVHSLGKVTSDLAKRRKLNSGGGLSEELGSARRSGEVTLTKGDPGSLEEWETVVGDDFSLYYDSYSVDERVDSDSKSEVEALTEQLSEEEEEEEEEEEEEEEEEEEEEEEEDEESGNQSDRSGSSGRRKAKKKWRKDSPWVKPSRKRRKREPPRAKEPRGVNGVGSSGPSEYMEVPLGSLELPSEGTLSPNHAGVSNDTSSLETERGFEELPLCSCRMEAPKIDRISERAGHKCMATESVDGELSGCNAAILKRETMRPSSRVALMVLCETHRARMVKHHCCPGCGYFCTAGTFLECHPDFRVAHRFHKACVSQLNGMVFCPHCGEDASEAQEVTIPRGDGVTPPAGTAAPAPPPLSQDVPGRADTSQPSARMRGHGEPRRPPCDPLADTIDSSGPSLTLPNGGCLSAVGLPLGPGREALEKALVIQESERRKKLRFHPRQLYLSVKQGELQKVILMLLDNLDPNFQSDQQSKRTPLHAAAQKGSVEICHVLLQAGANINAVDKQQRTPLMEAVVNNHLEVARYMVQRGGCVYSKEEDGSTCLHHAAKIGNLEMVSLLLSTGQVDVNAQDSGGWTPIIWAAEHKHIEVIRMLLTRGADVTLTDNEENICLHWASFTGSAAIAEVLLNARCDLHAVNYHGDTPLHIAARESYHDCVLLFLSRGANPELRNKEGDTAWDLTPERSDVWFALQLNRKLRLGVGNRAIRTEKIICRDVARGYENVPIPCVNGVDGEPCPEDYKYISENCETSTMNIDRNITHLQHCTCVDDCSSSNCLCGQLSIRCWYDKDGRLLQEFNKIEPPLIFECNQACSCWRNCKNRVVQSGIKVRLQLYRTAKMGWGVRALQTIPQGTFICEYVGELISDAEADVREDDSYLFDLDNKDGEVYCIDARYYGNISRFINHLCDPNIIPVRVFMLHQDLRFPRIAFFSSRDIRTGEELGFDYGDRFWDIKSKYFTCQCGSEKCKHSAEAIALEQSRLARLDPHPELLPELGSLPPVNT
T1 sequence (Q9H9B1 2-1298 limits assumed): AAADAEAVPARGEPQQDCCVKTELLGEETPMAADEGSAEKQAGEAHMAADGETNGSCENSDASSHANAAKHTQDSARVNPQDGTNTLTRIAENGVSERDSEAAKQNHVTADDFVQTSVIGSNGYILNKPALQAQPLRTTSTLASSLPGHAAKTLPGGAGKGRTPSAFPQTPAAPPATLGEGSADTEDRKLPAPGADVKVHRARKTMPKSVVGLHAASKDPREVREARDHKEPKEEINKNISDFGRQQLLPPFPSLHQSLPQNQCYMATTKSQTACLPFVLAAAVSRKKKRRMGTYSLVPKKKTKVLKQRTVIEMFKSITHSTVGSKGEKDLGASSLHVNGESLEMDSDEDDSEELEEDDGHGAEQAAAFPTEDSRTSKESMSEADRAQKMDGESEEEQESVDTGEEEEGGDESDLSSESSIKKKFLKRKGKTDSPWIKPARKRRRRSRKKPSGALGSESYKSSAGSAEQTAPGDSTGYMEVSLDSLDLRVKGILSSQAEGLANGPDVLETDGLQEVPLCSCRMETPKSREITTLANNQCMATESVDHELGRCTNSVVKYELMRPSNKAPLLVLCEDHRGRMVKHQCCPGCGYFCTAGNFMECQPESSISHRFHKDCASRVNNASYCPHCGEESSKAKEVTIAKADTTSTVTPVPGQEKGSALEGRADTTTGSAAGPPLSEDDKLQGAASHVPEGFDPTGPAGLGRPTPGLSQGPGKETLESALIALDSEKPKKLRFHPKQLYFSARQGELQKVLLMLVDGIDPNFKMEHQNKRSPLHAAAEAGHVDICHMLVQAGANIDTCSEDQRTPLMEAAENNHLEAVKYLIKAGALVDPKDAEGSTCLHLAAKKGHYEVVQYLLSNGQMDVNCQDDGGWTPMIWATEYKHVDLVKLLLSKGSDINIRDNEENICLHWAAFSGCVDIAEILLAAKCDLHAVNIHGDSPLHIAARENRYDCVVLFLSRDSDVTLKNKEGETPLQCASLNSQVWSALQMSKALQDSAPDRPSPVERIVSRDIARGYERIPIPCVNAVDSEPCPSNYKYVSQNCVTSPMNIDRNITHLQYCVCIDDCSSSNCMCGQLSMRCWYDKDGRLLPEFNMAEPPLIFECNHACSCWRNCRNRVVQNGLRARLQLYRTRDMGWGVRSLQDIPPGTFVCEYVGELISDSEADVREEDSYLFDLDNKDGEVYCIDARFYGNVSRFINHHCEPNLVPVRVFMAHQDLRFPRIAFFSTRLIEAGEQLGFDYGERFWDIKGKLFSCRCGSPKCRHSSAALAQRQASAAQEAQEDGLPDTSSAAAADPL
Description: Triple SILAC pull-down after UNC0638 treatment of 293T cells, DMSO/UNC0638 ratio of protein captured by 3×MBT.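 For all read-outs here: mass spectrometry (Q-Exactive) SILAC quantitation, DMSO/UNC0638 ratio computed after subtracting 3×MBTD355N mutant pull-down background, only proteins with at least twofold 3×MBT over mutant signal considered.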 The class given is cell-based. Also noted: endogenous in cells; host or cells: HEK 293T. To be noted: for Relative to UNC0638 UNC Heavy: UNC0638 in heavy SILAC media; for Relative to UNC0638 UNC Light: UNC0638 in light SILAC media; for Relative to UNC0638 Average: average of UNC Light and UNC Heavy experiments.

Setting [3] is: SILAC ratio, pull-down 3xMBT vs 3xMBTD355N.
Where [4] appears, read: SILAC ratio DMSO/UNC0638 of protein pulled down with 3xMBT.
Where [5] appears, read: SILAC ratio 3xMBT vs 3xMBTD355N pull-down, 293T cells, all values in log base 2.
Where [6] appears, read: SILAC ratio DMSO relative to UNC0638, pull-down with 3xMBT, all values in log base 2.

B1: GSR (protein, UniProt P00390 44-522, looked up)
Glutathione reductase, …: MACRQEPQPQGPPPAAGAVASYDYLVIGGGSGGLASARRAAELGARAAVVESHKLGGTCVNVGCVPKKVMWNTAVHSEFMHDHADYGFPSCEGKFNWRVIKEKRDAYVSRLNAIYQNNLTKSHIEIIRGHAAFTSDPKPTIEVSGKKYTAPHILIATGGMPSTPHESQIPGASLGITSDGFFQLEELPGRSVIVGAGYIAVEMAGILSALGSKTSLMIRHDKVLRSFDSMISTNCTEELENAGVEVLKFSQVKEVKKTLSGLEVSMVTAVPGRLPVMTMIPDVDCLLWAIGRVPNTKDLSLNKLGIQTDDKGHIIVDEFQNTNVKGIYAVGDVCGKALLTPVAIAAGRKLAHRLFEYKEDSKLDYNNIPTVVFSHPPIGTVGLTEDEAIHKYGIENVKTYSTSFTPMYHAVTKRKTKCVMKMVCANKEEKVVGIHMQGLGCDEMLQGFAVAVKMGATKADFDNTVAIHPTSSEELVTLR
With B1, in test [1] (setting [3]), the “3xMBT/D355N UNC Heavy” value is listed as 2.92 log base 2 and the “3xMBT/D355N UNC Light” value was 2.32 log base 2. Also, in test [2] (setting [4]), the “Relative to UNC0638 UNC Heavy” value amounted to 0.24 log base 2 and the “Relative to UNC0638 UNC Light” value is listed as −0.02 log base 2. Further, in test [2], the “Relative to UNC0638 Average” value came out at 0.11 log base 2.

B2: HNRNPM (protein, UniProt P52272 2-730, looked up)
Heterogeneous nuclear …: AAGVEAAAEVAATEIKMEEESGAPGVPSGNGAPGPKGEGERPAQNEKRKEKNIKRGGNRFEPYANPTKRYRAFITNIPFDVKWQSLKDLVKEKVGEVTYVELLMDAEGKSRGCAVVEFKMEESMKKAAEVLNKHSLSGRPLKVKEDPDGEHARRAMQKVMATTGGMGMGPGGPGMITIPPSILNNPNIPNEIIHALQAGRLGSTVFVANLDYKVGWKKLKEVFSMAGVVVRADILEDKDGKSRGIGTVTFEQSIEAVQAISMFNGQLLFDRPMHVKMDERALPKGDFFPPERPQQLPHGLGGIGMGLGPGGQPIDANHLNKGIGMGNIGPAGMGMEGIGFGINKMGGMEGPFGGGMENMGRFGSGMNMGRINEILSNALKRGEIIAKQGGGGGGGSVPGIERMGPGIDRLGGAGMERMGAGLGHGMDRVGSEIERMGLVMDRMGSVERMGSGIERMGPLGLDHMASSIERMGQTMERIGSGVERMGAGMGFGLERMAAPIDRVGQTIERMGSGVERMGPAIERMGLSMERMVPAGMGAGLERMGPVMDRMATGLERMGANNLERMGLERMGANSLERMGLERMGANSLERMGPAMGPALGAGIERMGLAMGGGGGASFDRAIEMERGNFGGSFAGSFGGAGGHAPGVARKACQIFVRNLPFDFTWKMLKDKFNECGHVLYADIKMENGKSKGCGVVKFESPEVAERACRMMNGMKLSGREIDVRIDRNA
Turning to B2, in test [1] (setting [5]), the “3xMBT/D355N UNC Heavy” value came out at 3.18 log base 2 and the “3xMBT/D355N UNC Light” value is reported as 2.44 log base 2. In test [2] (setting [6]), the “Relative to UNC0638 UNC Heavy” value is listed as 0.01 log base 2 and the “Relative to UNC0638 UNC Light” value was 0.19 log base 2. The “Relative to UNC0638 Average” value in test [2] (all values in log base 2) is reported as 0.10 log base 2.

B3: CBR1 (protein, UniProt P16152 2-277, looked up)
Carbonyl reductase [NADPH] 1: SSGIHVALVTGGNKGIGLAIVRDLCRLFSGDVVLTARDVTRGQAAVQQLQAEGLSPRFHQLDIDDLQSIRALRDFLRKEYGGLDVLVNNAGIAFKVADPTPFHIQAEVTMKTNFFGTRDVCTELLPLIKPQGRVVNVSSIMSVRALKSCSPELQQKFRSETITEEELVGLMNKFVEDTKKGVHQKEGWPSSAYGVTKIGVTVLSRIHARKLSEQRKGDKILLNACCPGWVRTDMAGPKATKSPEEGAETPVYLALLPPDAEGPHGQFVSEKRVEQW
For the molecule B3, in test [1] (setting [3]), the “3xMBT/D355N UNC Heavy” value was found to be 1.12 log base 2 and the “3xMBT/D355N UNC Light” value was 0.84 log base 2. Also, in test [2] (setting [4]), the “Relative to UNC0638 UNC Heavy” value is listed as −0.09 log base 2 and the “Relative to UNC0638 UNC Light” value was determined as 1.14 log base 2. The “Relative to UNC0638 Average” value in test [2] is 0.53 log base 2.

B4: PRDX1 (protein, UniProt Q06830 2-199, looked up)
Peroxiredoxin-1: SSGNAKIGHPAPNFKATAVMPDGQFKDISLSDYKGKYVVFFFYPLDFTFVCPTEIIAFSDRAEEFKKLNCQVIGASVDSHFCHLAWVNTPKKQGGLGPMNIPLVSDPKRTIAQDYGVLKADEGISFRGLFIIDDKGILRQITVNDLPVGRSVDETLRLVQAFQFTDKHGEVCPAGWKPGSDTIKPDVQKSKEYFSKQK
Regarding B4, in test [1] (setting [5]), the “3xMBT/D355N UNC Heavy” value was found to be 1.65 log base 2 and the “3xMBT/D355N UNC Light” value is reported as 1.98 log base 2. For the same molecule, in test [2] (setting [6]), the “Relative to UNC0638 UNC Heavy” value stood at 0.17 log base 2 and the “Relative to UNC0638 UNC Light” value came out at 0.04 log base 2. Moreover, the “Relative to UNC0638 Average” value in test [2] (all values in log base 2) amounted to 0.10 log base 2.

B5: RBM14 (protein, UniProt Q96PK6 1-669, looked up)
RNA-binding protein 14: MKIFVGNVDGADTTPEELAALFAPYGTVMSCAVMKQFAFVHMRENAGALRAIEALHGHELRPGRALVVEMSRPRPLNTWKIFVGNVSAACTSQELRSLFERRGRVIECDVVKDYAFVHMEKEADAKAAIAQLNGKEVKGKRINVELSTKGQKKGPGLAVQSGDKTKKPGAGDTAFPGTGGFSATFDYQQAFGNSTGGFDGQARQPTPPFFGRDRSPLRRSPPRASYVAPLTAQPATYRAQPSVSLGAAYRAQPSASLGVGYRTQPMTAQAASYRAQPSVSLGAPYRGQLASPSSQSAAASSLGPYGGAQPSASALSSYGGQAAAASSLNSYGAQGSSLASYGNQPSSYGAQAASSYGVRAAASSYNTQGAASSLGSYGAQAASYGAQSAASSLAYGAQAASYNAQPSASYNAQSAPYAAQQAASYSSQPAAYVAQPATAAAYASQPAAYAAQATTPMAGSYGAQPVVQTQLNSYGAQASMGLSGSYGAQSAAAATGSYGAAAAYGAQPSATLAAPYRTQSSASLAASYAAQQHPQAAASYRGQPGNAYDGAGQPSAAYLSMSQGAVANANSTPPPYERTRLSPPRASYDDPYKKAVAMSKRYGSDRRLAELSDYRRLSESQLSFRRSPTKSSLDYRRLPDAHSDYARYSGSYNDYLRAAQMHSGYQRRM
Regarding B5, in test [1] (setting [3]), the “3xMBT/D355N UNC Heavy” value is reported as 0.82 log base 2 and the “3xMBT/D355N UNC Light” value is recorded as 1.89 log base 2. In test [2] (setting [4]), the “Relative to UNC0638 UNC Heavy” value is on record as 0.06 log base 2 and the “Relative to UNC0638 UNC Light” value turned out to be 0.17 log base 2. In addition, the “Relative to UNC0638 Average” value in test [2] is recorded as 0.11 log base 2.

The values are drawn from patent publication US20140274782A1, “AFFINITY REAGENTS AND METHODS FOR DETECTION, PURIFICATION, AND PROTEOMIC ANALYSIS OF METHYLATED PROTEINS” (The Board of Trustees of the Leland Stanford Junior …, priority 2013, published 2014).
